Experimental data from US20260201008A1, “SECRETIN-DERIVED GLP1R SELECTIVE AGONISTS” (GUBRA A/S, priority 2023, published 2026).
Numbered stars: 1 amine (or outer) side, 2 acyl side, 3 side chain; on linkers, the order of the positions; unused ones are H or OH. Square brackets hold non-standard residues; d marks the D form. Side chains are listed from the residue outwards. Ends that are not written are not given here. Peptide text beside a SMILES is read from it. * marks the point of attachment. C20 diacid = O=C(O)CCCCCCCCCCCCCCCCCCC(=O)*; γGlu = O=C(O)[C@H](CCC(=O)[*:2])N[*:1]; AEEA = NCCOCCOCC(=O)O; Aib = CC(C)(N)C(=O)O

Legend:
[1] = Turbidity of crude library peptides (absorbance at 600 nm); format: physicochemical; conditions: Physical stability of peptides
Outline: (§1)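 Turbidity is the absorbance at 600 nm, taken before heating. Fibril signal is the mean ThT emission at 480 nm (450 nm excitation), read every 10 min over 72 h at 40° C with 700 rpm shaking between reads. Peptides at 267 μM, pH 4.0 acetate or pH 7.0 phosphate buffer (50 mM), 4 μM ThT final.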

[2] = Fibril formation of crude library peptides (Thioflavin T); format: physicochemical; parameters: key: average ThT fluorescence emission at 480 nm (ex 450 nm), raw units; conditions: Physical stability of peptides
Outline: as §1

GLP1R = GLP1R (Homo sapiens, UniProt P43220); assay: hGLP1R potency, cAMP accumulation in CHO-K1 cells stably overexpressing hGLP1R; format: cell-based; parameters: host or cells: CHO-K1; conditions: for EC50: cAMP accumulation, CHO-K1 cells overexpressing hGLP1R, read-out: hGLP1R pEC50 (converted); for SCTR EC50/GLP1R EC50 ratio: selectivity for hGLP1R over hSCTR, cAMP accumulation in CHO-K1 cells
GLP1R, sequence (P43220 24-463): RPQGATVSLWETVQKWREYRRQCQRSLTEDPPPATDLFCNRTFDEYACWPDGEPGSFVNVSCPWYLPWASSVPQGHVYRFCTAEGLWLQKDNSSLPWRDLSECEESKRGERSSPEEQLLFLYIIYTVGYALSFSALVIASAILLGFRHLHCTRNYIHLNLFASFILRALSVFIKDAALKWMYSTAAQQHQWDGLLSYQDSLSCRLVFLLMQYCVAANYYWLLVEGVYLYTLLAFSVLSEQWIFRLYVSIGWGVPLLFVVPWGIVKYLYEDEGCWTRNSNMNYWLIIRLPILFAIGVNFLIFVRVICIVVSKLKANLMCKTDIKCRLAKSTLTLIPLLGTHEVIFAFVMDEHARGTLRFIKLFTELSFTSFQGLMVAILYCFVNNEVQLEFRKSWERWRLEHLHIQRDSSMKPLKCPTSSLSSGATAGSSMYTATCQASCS
Outline: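 2000 cells/well, DPBS + 0.05% casein + 0.5 mM IBMX; 30 min RT stimulation; HTRF cAMP detection after 1 h. Purified: 3-fold ×11, n=2; crude: 10-fold ×5, n=1. EC50 by variable-slope fit.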

SCTR = SCTR (Homo sapiens, UniProt P47872); assay: hSCTR potency, cAMP accumulation in CHO-K1 cells stably overexpressing hSCTR; format: cell-based; parameters: alternatively Euroscreen ES-712-AF; FAST-0161L; host or cells: CHO-K1; conditions: cAMP accumulation, CHO-K1 cells overexpressing hSCTR; read-out: hSCTR pEC50 (converted)
SCTR, sequence (P47872 23-440): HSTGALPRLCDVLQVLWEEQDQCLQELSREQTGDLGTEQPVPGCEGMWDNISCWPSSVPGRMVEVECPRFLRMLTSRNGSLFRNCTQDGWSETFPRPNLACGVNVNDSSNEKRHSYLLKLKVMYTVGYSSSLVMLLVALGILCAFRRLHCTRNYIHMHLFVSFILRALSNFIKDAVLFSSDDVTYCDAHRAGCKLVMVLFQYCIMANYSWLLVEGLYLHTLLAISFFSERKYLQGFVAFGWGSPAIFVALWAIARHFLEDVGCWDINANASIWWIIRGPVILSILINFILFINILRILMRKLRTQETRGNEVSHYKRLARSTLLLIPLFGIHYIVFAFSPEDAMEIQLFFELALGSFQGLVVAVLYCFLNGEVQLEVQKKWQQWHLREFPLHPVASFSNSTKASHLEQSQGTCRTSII
Outline: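 Thawed CHO-K1 cells carrying stable hSCTR are plated into casein/IBMX buffer (0.05%, 0.5 mM), dosed immediately for 30 min at room temperature, then cAMP is detected by TR-FRET. Purified peptides run as 11 three-fold dilutions in duplicate, and curves are fitted with variable slope.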

[3] = molecular target: human GLP-1 receptor (hGLP1R) (human, UniProt P43220 24-463); assay: cell-based or functional assay
[4] = molecular target: human secretin receptor (hSCTR) (human, UniProt P47872 23-440); assay: cell-based or functional assay
human secretin receptor (hSCTR), sequence (P47872 23-440): as above

Molecule	pEC50 hGLPR1 [3]	pEC50 hSCTR [4]	also measured
CC[C@H](C)[C@H](NC(=O)[C@H](Cc1ccccc1)NC(=O)[C@H](CCCNC(=N)N)NC(=O)[C@H](CCC(N)=O)NC(=O)[C@H](CC(C)C)NC(=O)[C@H](C)NC(=O)[C@H](C)NC(=O)CNC(=O)[C@H](CCC(=O)O)NC(=O)[C@H](CC(C)C)NC(=O)[C@H](CC(C)C)NC(=O)[C@H](Cc1c[nH]c2ccccc12)NC(=O)[C@H](CO)NC(=O)[C@@H](NC(=O)[C@H](CC(=O)O)NC(=O)[C@H](CO)NC(=O)[C@@H](NC(=O)[C@H](Cc1ccccc1)NC(=O)[C@@H](NC(=O)CNC(=O)[C@H](CCC(=O)O)NC(=O)C(C)(C)NC(=O)[C@@H](N)Cc1c[nH]cn1)[C@@H](C)O)[C@@H](C)O)C(C)C)C(=O)N[C@@H](CCC(N)=O)C(=O)N[C@@H](Cc1c[nH]c2ccccc12)C(=O)N[C@@H](CC(C)C)C(=O)N[C@H](C(N)=O)C(C)C [compound 183] (H-H[Aib]EGTFTSDVSWLLEGAALQRFIQWLV-NH2)	–	–	Turbidity (pH 7) [1]: 0.67; Fibril formation [2]: 172171; EC50 (GLP1R): 0.0501 nM; SCTR EC50/GLP1R EC50 ratio (GLP1R): 3127; EC50 (SCTR): 158 nM
CC[C@H](C)[C@H](NC(=O)[C@H](Cc1ccccc1)NC(=O)[C@H](CCCNC(=N)N)NC(=O)[C@H](CCC(N)=O)NC(=O)[C@H](CC(C)C)NC(=O)[C@H](C)NC(=O)[C@H](C)NC(=O)CNC(=O)[C@H](CCC(=O)O)NC(=O)[C@H](CC(C)C)NC(=O)[C@H](CC(C)C)NC(=O)[C@H](Cc1c[nH]c2ccccc12)NC(=O)[C@H](CO)NC(=O)[C@@H]1CCCN1C(=O)[C@H](CC(=O)O)NC(=O)[C@H](CO)NC(=O)[C@@H](NC(=O)[C@H](Cc1ccccc1)NC(=O)[C@@H](NC(=O)CNC(=O)[C@H](CCC(=O)O)NC(=O)C(C)(C)NC(=O)[C@@H](N)Cc1c[nH]cn1)[C@@H](C)O)[C@@H](C)O)C(=O)N[C@@H](CCC(N)=O)C(=O)N[C@@H](Cc1c[nH]c2ccccc12)C(=O)N[C@@H](CC(C)C)C(=O)N[C@H](C(N)=O)C(C)C [compound 127] (H-H[Aib]EGTFTSDPSWLLEGAALQRFIQWLV-NH2)	–	–	Turbidity (pH 7) [1]: 0.19; Fibril formation [2]: 11084; EC50 (GLP1R): 7.94 nM; SCTR EC50/GLP1R EC50 ratio (GLP1R): 464; EC50 (SCTR): 3980 nM
H[Aib]EGTFTSDVSFLK([AEEA-AEEA-γGlu-C20 diacid])EEAAAQRFLEHLV-NH2 [SEQ ID NO: 63]	10.3 -log M	5 -log M	–
H[Aib]EGTFTSDVSVLK([AEEA-AEEA-γGlu-C20 diacid])EEAATQRFLEHLV-NH2 [SEQ ID NO: 53]	11.3 -log M	7.2 -log M	–
H[Aib]EGTFTSDVSTLK([AEEA-AEEA-γGlu-C20 diacid])EEAASQRFLEHLV-NH2 [SEQ ID NO: 6]	10.5 -log M	6.5 -log M	–
H[Aib]EGTFTSDVSELK([AEEA-AEEA-γGlu-C20 diacid])ETAAAQRFLEHLV-NH2 [SEQ ID NO: 57]	10.6 -log M	5.3 -log M	–
H[Aib]EGTFTSDVSRLK([AEEA-AEEA-γGlu-C20 diacid])EFAAEQRFLEHLV-NH2 [SEQ ID NO: 72]	10 -log M	6 -log M	–
H[Aib]EGTFTSDVSRLK([AEEA-AEEA-γGlu-C20 diacid])EEAA[Aib]QRFLEHLV-NH2 (also: K14 lipid also given as C18DA[γE][OEG][OEG]-) [SEQ ID NO: 1]	10.4 -log M	6.8 -log M	–
H[Aib]EGTFTSDVSELK([AEEA-AEEA-γGlu-C20 diacid])E[Aib]AAQQRFLEHLV-NH2 [SEQ ID NO: 5]	10.9 -log M	7.1 -log M	–
H[Aib]EGTFTSDVSELK([AEEA-AEEA-γGlu-C20 diacid])ETAATQRFLEHLV-NH2 [SEQ ID NO: 54]	10.9 -log M	6.9 -log M	–
H[Aib]EGTFTSDVSRLK([AEEA-AEEA-γGlu-C20 diacid])EFAASQRFLEHLV-NH2 [SEQ ID NO: 52]	9.9 -log M	6.4 -log M	–
H[Aib]EGTFTSDVSRLK([AEEA-AEEA-γGlu-C20 diacid])E[Aib]AASQRFLEHLV-NH2 [SEQ ID NO: 59]	10.5 -log M	6.9 -log M	–
H[Aib]EGTFTSDVSVLK([AEEA-AEEA-γGlu-C20 diacid])ETAAAQRFLEHLV-NH2 [SEQ ID NO: 62]	10 -log M	5.7 -log M	–
H[Aib]EGTFTSDVSRLK([AEEA-AEEA-γGlu-C20 diacid])ETAASQRFLEHLV-NH2 [SEQ ID NO: 71]	10.2 -log M	6 -log M	–
H[Aib]EGTFTSDVSFLK([AEEA-AEEA-γGlu-C20 diacid])ETAATQRFLEHLV-NH2 [SEQ ID NO: 70]	10.7 -log M	7 -log M	–
H[Aib]EGTFTSDVSRLK([AEEA-AEEA-γGlu-C20 diacid])E[Aib]AATQRFLEHLV-NH2 [SEQ ID NO: 50]	10.8 -log M	7.3 -log M	–
H[Aib]EGTFTSDVSYLK([AEEA-AEEA-γGlu-C20 diacid])ETAAQQRFLEHLV-NH2 [SEQ ID NO: 58]	10.6 -log M	6 -log M	–
H[Aib]EGTFTSDVSRLK([AEEA-AEEA-γGlu-C20 diacid])E[Aib]AA[Aib]QRFLEHLV-NH2 [SEQ ID NO: 64]	10.2 -log M	6.5 -log M	–
H[Aib]EGTFTSDVSRLK([AEEA-AEEA-γGlu-C20 diacid])EFAA[Aib]QRFLEHLV-NH2 [SEQ ID NO: 68]	10 -log M	5.9 -log M	–
H[Aib]EGTFTSDVSELK([AEEA-AEEA-γGlu-C20 diacid])EEAAEQRFLEHLV-NH2 [SEQ ID NO: 51]	10.5 -log M	5.7 -log M	–
H[Aib]EGTFTSDVSRLK([AEEA-AEEA-γGlu-C20 diacid])EEAATQRFLEHLV-NH2 [SEQ ID NO: 65]	11.5 -log M	7.6 -log M	–
H[Aib]EGTFTSDVSYLK([AEEA-AEEA-γGlu-C20 diacid])EEAAAQRFLEHLV-NH2 [SEQ ID NO: 61]	10.9 -log M	6.1 -log M	–
H[Aib]EGTFTSDVSELK([AEEA-AEEA-γGlu-C20 diacid])E[Aib]AA[Aib]QRFLEHLV-NH2 [SEQ ID NO: 7]	10.2 -log M	6 -log M	–
H[Aib]EGTFTSDVSELK([AEEA-AEEA-γGlu-C20 diacid])EEAATQRFLEHLV-NH2 [SEQ ID NO: 55]	11 -log M	6.8 -log M	–
H[Aib]EGTFTSDVSYLK([AEEA-AEEA-γGlu-C20 diacid])EFAASQRFLEHLV-NH2 [SEQ ID NO: 66]	10.4 -log M	5.5 -log M	–
H[Aib]EGTFTSDVSTLK([AEEA-AEEA-γGlu-C20 diacid])ELAATQRFLEHLV-NH2 [SEQ ID NO: 67]	10.3 -log M	6.4 -log M	–
H[Aib]EGTFTSDVSRLK([AEEA-AEEA-γGlu-C20 diacid])EEAAAQRFLEHLV-NH2 [SEQ ID NO: 60]	10.5 -log M	6.6 -log M	–
H[Aib]EGTFTSDVSFLK([AEEA-AEEA-γGlu-C20 diacid])EEAAEQRFLEHLV-NH2 [SEQ ID NO: 56]	10.4 -log M	5.1 -log M	–
H[Aib]EGTFTSDVSYLK([AEEA-AEEA-γGlu-C20 diacid])ETAAEQRFLEHLV-NH2 [SEQ ID NO: 69]	10.8 -log M	4.8 -log M	–
